B1: GCC-box-like sequence 1 (dsDNA)
DNA 1: GAATGGGCGATAGAGCTCATACTTACCCGCCTCTCTTCACATTCAAACTTCTAATATTA
DNA 2: TAATATTAGAAGTTTGAATGTGAAGAGAGGCGGGTAAGTATGAGCTCTATCGCCCATTC
B2: mGCC-box-like sequence 1 (dsDNA)
DNA 1: GAATGGGCGATAGAGCTCATACTTAAAAGCCTCTCTTCACATTCAAACTTCTAATATTA
DNA 2: TAATATTAGAAGTTTGAATGTGAAGAGAGGCTTTTAAGTATGAGCTCTATCGCCCATTC
B3: GCC-box-like sequence 2 (dsDNA)
DNA 1: AATTTACAAAATTATAGAAGTCAAATTACGACGTCGTAAATCTGGCGGGACTTTAATGG
DNA 2: CCATTAAAGTCCCGCCAGATTTACGACGTCGTAATTTGACTTCTATAATTTTGTAAATT
B4: mGCC-box-like sequence 2 (dsDNA)
DNA 1: AATTTACAAAATTATAGAAGTCAAATTACGACGTCGTAAATCTGGCAAAACTTTAATGG
DNA 2: CCATTAAAGTTTTGCCAGATTTACGACGTCGTAATTTGACTTCTATAATTTTGTAAATT

target: CitERF71 (Citrus sinensis Osbeck (Newhall sweet …, UniProt A0A067HCL9 1-233)); assay: EMSA; LightShift Chemiluminescent EMSA kit per manufacturer and Nieuwenhuizen et al. 2015; buffer, salt, pH and temperature not stated; settings: protein: recombinant; tags: N-terminal 6xHN (His) tag; label: 3' biotin; blunt
Sequence (A0A067HCL9 entry or part of it): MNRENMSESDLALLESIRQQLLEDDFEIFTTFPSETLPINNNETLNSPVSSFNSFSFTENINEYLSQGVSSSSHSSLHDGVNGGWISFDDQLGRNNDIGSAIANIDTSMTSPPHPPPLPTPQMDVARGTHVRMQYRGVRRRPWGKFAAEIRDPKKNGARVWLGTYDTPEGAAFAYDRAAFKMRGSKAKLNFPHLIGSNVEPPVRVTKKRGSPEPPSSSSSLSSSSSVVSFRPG

Q: Does B1 bind?
A: Result: binds

Q: Does B2 bind?
A: Result: no binding

Q: Does B3 bind?
A: Result: binds

Q: Does B4 bind?
A: Result: no binding

Reference: publication PMC5853461, “Transcription factor CitERF71 activates the terpene synthase gene CitTPS16 involved in the synthesis of E-geraniol in sweet orange fruit”
